Reference: US20250313621A1

Experiments:
[1] = target: Wildtype human PAR2 expressed on cells (human) (UniProt P55085); experiment: cell-based or functional assay
[2] = target: Wildtype human PAR2 expressed on cells (human) (UniProt P55085); experiment: flow cytometry on HEK293F-humanPAR2 (3.0E+06 cells/mL, w/ NaN3), overnight at about 5 C, S/BG
[3] = target: Cynomolgus PAR2 on BacMam-infected HEK293 cells (cynomolgus); experiment: flow cytometry on HEK293F-cynoPAR2 (3.0E+06 cells/mL, w/ NaN3), overnight at about 5 C, S/BG [continued]

Chain of Wildtype human PAR2 expressed on cells (human) (P55085 37-397 limits assumed): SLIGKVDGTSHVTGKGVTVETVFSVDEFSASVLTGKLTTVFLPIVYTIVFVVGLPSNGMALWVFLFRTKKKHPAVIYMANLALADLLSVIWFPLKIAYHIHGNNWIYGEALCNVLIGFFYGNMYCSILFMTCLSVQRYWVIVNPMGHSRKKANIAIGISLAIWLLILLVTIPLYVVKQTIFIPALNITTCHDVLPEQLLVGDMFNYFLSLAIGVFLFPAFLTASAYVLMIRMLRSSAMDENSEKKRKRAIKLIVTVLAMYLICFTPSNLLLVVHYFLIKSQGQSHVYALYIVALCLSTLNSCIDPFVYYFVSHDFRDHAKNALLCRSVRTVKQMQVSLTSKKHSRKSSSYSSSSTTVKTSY

B1: Benchmark 2 (antibody, from another filing, V domains shown)
VH: EVQLLESGGGLVQPGGSLRLSCAASGFTFSSYAMNWVRQAPGKGLEWVSTISYHGSHISYHDSVHHRFTISRDNSKNTLYLQMNSLRAEDTAVYYCARIHHDPMDVWGQGTLVTVSS
VL: SIELTQPPSVSVSPGQTASITCSGDNLGKKYVQWYQQKPGQSPVLVIYDDSNRPSGIPERFSGSNSGNTATLTISGTQAMDEADYYCQTWDGNPTTGETNVFGGGTKLTVL
- % Max Inhibition, PAR1 peptide SFLLR-NH2 challenge, IP-One [1]: 3%

B2: Benchmark 4 IgG (antibody, from another filing, V domains shown)
VH: EVQLVQSGAEVKKPGESLKISCKGSGYNFISHWIGWVRQMPGKGLEWMGMIYPGDSDTRYSPSFQGQVTISADKSINTAYLQWRSLKASDTAMYFCARHGGITGTTFYYDFGMDVWGQGTTVTVSS
VL: SYELTQPPSVSVSPGQTARITCSGDALPKQYASWYQQKPGQAPLLVIYRDSERPSGLPERFSGSSSGTTVTLTISGVQAEDEADYYCQSADSGGSYVFGTGTKVTVL
- EC50 (read off the curve) [2]: 1 nM
- EC50 (read off the curve) [3]: 1 nM

B3: Benchmark 3 IgG (antibody, from another filing, V domains shown)
VH: QVQLVESGGGVVQPGRSLRLSCVASGFTFSRYGIHWVRQAPGKGLEWVIVISYDGINKYYADSVKGRFTISRDNSKNTVYLQMNSLRAEDTAVYYCAKGDFWSGYFDYWGQGTLVTVSS
VL: DIVMTQTPLSSPVTLGQPASISCRSSQSLVHSDGNTYLSWLHQRPGQPPRLLIYKISNRFSGVPDRFSGSGAGTDFTLQISRVEAEDVGIYYCMQATQFPTFGGGTKVEIK
- EC50 (read off the curve) [2]: 1 nM
- EC50 (read off the curve) [3]: 2 nM
